Experimental data as given in US20240239891A1 (Stanford University, published 2024).

Assays:
[1] = biological target: T1, extracellular domain (ECD) of human GODZILLA (RNF167) (human, UniProt Q9H6Y7 25-173, limits assumed); assay: SPR (Biacore), titrations at equilibrium, Biacore Analysis Software; row GOLIATH-A1, column GODZILLA (hRNF167)
T1 construct: extracellular domain; also called GODZILLA ECD

[2] = biological target: T2, extracellular domain (ECD) of human GRAIL (RNF128) (human, UniProt Q8TEB7 39-207, limits assumed); assay: SPR (Biacore), titrations at equilibrium, Biacore Analysis Software; row GOLIATH-A1, column GRAIL (hRNF128)
T2 construct: extracellular domain; also called GRAIL ECD
T2 sequence (looked up): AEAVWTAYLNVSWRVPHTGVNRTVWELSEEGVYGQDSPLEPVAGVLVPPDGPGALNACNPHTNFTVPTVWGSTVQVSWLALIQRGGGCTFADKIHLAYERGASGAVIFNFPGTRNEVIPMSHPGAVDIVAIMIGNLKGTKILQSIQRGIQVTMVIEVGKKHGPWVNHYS

[3] = biological target: T3, extracellular domain (ECD) of human GOLIATH (RNF130) (human, UniProt Q86XS8 28-194); assay: SPR (Biacore), titration at equilibrium, nanobody on ECD
T3 construct: extracellular domain; also called GOLIATH ECD
T3 sequence (looked up): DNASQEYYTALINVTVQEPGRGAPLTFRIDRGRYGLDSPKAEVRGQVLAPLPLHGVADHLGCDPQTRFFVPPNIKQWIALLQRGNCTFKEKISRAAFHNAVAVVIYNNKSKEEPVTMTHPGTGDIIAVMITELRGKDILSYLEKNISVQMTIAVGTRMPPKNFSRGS

[4] = biological target: T1, extracellular domain (ECD) of human …; assay: SPR (Biacore), titrations at equilibrium, Biacore Analysis Software; row GRAIL-D1, column GODZILLA (hRNF167)
[5] = biological target: T2, extracellular domain (ECD) of human …; assay: SPR (Biacore), titration at equilibrium, nanobody on ECD
[6] = biological target: T3, extracellular domain (ECD) of human …; assay: SPR (Biacore), ligand hRNF130 ECD (GOLIATH), analyte GRAIL-D1
[7] = biological target: T1, extracellular domain (ECD) of human …; assay: SPR (Biacore), titrations at equilibrium, Biacore Analysis Software; row GRAIL-E2, column GODZILLA (hRNF167)
[8] = biological target: T3, extracellular domain (ECD) of human …; assay: SPR (Biacore), titrations at equilibrium, Biacore Analysis Software; row GRAIL-E2, column GOLIATH (hRNF130)
[9] = biological target: T4, extracellular domain (ECD) of human or mouse RNF43 (human or mouse); assay: SPR (Biacore), nanobody on ECD
T4 construct: extracellular domain; also called RNF43 ECD

[10] = biological target: T5, mRNF43 ECD; assay: SPR (Biacore), ligand mRNF43 ECD, nanobody as analyte
T5 construct: The mouse half of m18, which leaves the species open; also called extracellular domain of mouse RNF43
T5 chain: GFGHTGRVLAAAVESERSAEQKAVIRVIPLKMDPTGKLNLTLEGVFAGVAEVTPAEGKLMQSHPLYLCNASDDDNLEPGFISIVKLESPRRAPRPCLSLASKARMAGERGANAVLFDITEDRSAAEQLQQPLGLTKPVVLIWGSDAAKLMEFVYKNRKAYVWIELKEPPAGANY

[11] = biological target: T6, hRNF43 ECD; assay: SPR (Biacore), ligand hRNF43 ECD, nanobody as analyte
T6 construct: The human half of m18, which leaves the species open; also called extracellular domain of human RNF43
T6 chain: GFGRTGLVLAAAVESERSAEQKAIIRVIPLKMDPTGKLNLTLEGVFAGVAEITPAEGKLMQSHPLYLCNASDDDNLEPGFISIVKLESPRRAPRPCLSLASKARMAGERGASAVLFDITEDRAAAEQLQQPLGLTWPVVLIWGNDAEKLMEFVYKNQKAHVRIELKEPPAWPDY

[12] = biological target: T7, extracellular domain (ECD) of human or mouse ZNRF3 (human or mouse); assay: SPR (Biacore), nanobody on ECD
T7 construct: extracellular domain; also called ZNRF3 ECD

[13] = biological target: T1, extracellular domain (ECD) of human …; assay: SPR (Biacore), ligand hRNF167 ECD (GODZILLA), analyte GOLIATH-F8 [CONT. 3]
[14] = biological target: T2, extracellular domain (ECD) of human …; assay: SPR (Biacore), titrations at equilibrium, Biacore Analysis Software; column ECD GRAIL (hRNF128)
[15] = biological target: T1, extracellular domain (ECD) of human …; assay: SPR (Biacore), titrations at equilibrium, Biacore Analysis Software; row GOLIATH-D1, column GODZILLA (hRNF167)
[16] = biological target: T1, extracellular domain (ECD) of human …; assay: SPR (Biacore), ligand hRNF167 ECD (GODZILLA), analyte GOLIATH-F2 [CONT. 2]
[17] = biological target: T2, extracellular domain (ECD) of human …; assay: SPR (Biacore), ligand hRNF128 ECD (GRAIL), analyte GOLIATH-F2 [CONT. 2]
[18] = biological target: T3, extracellular domain (ECD) of human …; assay: SPR (Biacore), titrations at equilibrium, Biacore Analysis Software; row GRAIL-E1, column GOLIATH (hRNF130)
[19] = biological target: T1, extracellular domain (ECD) of human …; assay: SPR (Biacore), titrations at equilibrium, Biacore Analysis Software; row GRAIL-E1, column GODZILLA (hRNF167)
[20] = biological target: T8, hZNRF3 ECD; assay: SPR (Biacore), ligand hZNRF3 ECD, nanobody as analyte
T8 construct: The human half of m19, which leaves the species open; also called extracellular domain of human ZNRF3
T8 chain: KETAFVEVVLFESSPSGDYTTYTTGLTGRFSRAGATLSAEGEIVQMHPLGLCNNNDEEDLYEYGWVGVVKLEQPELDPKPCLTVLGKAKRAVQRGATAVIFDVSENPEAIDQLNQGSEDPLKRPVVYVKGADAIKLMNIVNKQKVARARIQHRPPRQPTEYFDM

[21] = biological target: T9, mZNRF3 ECD; assay: SPR (Biacore), ligand mZNRF3 ECD, nanobody as analyte
T9 construct: The mouse half of m19, which leaves the species open; also called extracellular domain of mouse ZNRF3
T9 chain: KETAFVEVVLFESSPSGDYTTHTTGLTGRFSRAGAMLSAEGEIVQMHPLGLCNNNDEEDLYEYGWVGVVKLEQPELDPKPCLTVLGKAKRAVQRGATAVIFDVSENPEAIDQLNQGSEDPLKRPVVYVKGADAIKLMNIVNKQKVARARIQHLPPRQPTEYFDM

B1: GOLIATH (RNF130) VHH of SEQ ID NO: 5 (VHH)
VHH: QVQLQESGGGLVQAGGSLRLSCAASGYISGYYVMGWYRQAPGKEREFVASISYGASTYYADSVKGRFTISRDNAKNTVYLQMNSLKPEDTAVYYCAVDFDSNYAHTYWGQGTQVTVSS
notes: also called A1; GOLIATH-A1
- binding result [1]: no binding
- binding result [2]: no binding
- Kd [3]: 8.18 nM

B2: GRAIL (RNF128) VHH of SEQ ID NO: 1 (VHH)
VHH: QVQLQESGGGLVQAGGSLRLSCAASGYIFYGVHMGWYRQAPGKEREFVAAIDLGTTTYYADSVKGRFTISRDNAKNTVYLQMNSLKPEDTAVYYCAVYFDGLTNLPYWGQGTQVTVSS
notes: Purified nanobody; also called GRAIL nanobody
- binding result [4]: no binding
- Kd [5]: 8.99 nM
- binding result [6]: no binding (tested: 500 (unit not printed))

B3: GRAIL (RNF128) VHH of SEQ ID NO: 3 (VHH)
VHH: QVQLQESGGGLVQAGGSLRLSCAASGSISGGKGMGWYRQAPGKEREFVAAIGSGAITYYADSVKGRFTISRDNAKNTVYLQMNSLKPEDTAVYYCAVYTTALDEYPYWGQGTQVTVSS
notes: also called E2; GRAIL-E2
- binding result [7]: no binding
- binding result [8]: no binding
- Kd [5]: 13.5 nM

B4: RNF43 VHH of SEQ ID NO: 12 (VHH)
VHH: QVQLQESGGGLVQAGGSLRLSCAASGSIFWKPVMGWYRQAPGKEREFVAAITSGTNTYYADSVKGRFTISRDNAKNTVYLQMNSLKPEDTAVYYCAVDDYDVVEYPYWGQGTQVTVSS
notes: also called RNF43 nanobody
- Kd [9]: 41.5 nM

B5: RNF43 VHH of SEQ ID NO: 11 (VHH)
VHH: QVQLQESGGGLVQAGGSLRLSCAASGTIFGLSDMGWYRQAPGKEREFVAAIAGGTITYYADSVKGRFTISRDNAKNTVYLQMNSLKPEDTAVYYCAAYKYDERYHSYWGQGTQVTVSS
notes: also called RNF43 nanobody
- Kd [9]: 163 nM
- binding result [10]: binds
- binding result [11]: binds

B6: GRAIL (RNF128) VHH of SEQ ID NO: 4 (VHH)
VHH: QVQLQESGGGLVQAGGSLRLSCAASGTISYYYAMGWYRQAPGKEREFVAAIDLGTSTYYADSVKGRFTISRDNAKNTVYLQMNSLKPEDTAVYYCAAWSDYVTELPYWGQGTQVTVSS
notes: also called GRAIL nanobody
- Kd [5]: 148 nM

B7: ZNRF3 VHH of SEQ ID NO: 13 (VHH)
VHH: QVQLQESGGGLVQAGGSLRLSCAASGTIFYTLFMGWYRQAPGKEREFVAGIGRGGITYYADSVKGRFTISRDNAKNTVYLQMNSLKPEDTAVYYCAVWYDFLHSDSQAYSYWGQGTQVTVSS
notes: also called ZNRF3 nanobody
- Kd [12]: 18.1 nM

B8: GOLIATH (RNF130) VHH of SEQ ID NO: 8 (VHH)
VHH: QVQLQESGGGLVQAGGSLRLSCAASGTISFIGYMGWYRQAPGKERELVASIASGTSTYYADSVKGRFTISRDNAKNTVYLQMNSLKPEDTAVYYCAATQYIQDAHRYWGQGTQVTVSS
notes: also called GOLIATH nanobody
- binding result [13]: no binding (tested: 2000 (unit not printed))
- Kd [14]: 70.2 nM
- Kd [3]: 130 nM

B9: GOLIATH (RNF130) VHH of SEQ ID NO: 6 (VHH)
VHH: QVQLQESGGGLVQAGGSLRLSCAASGTISFIGYMGWYRQAPGKERELVASIASGTSTYYADSVKGRFTISRDNAKNTVYLQMNSLKPEDTAVYYCAATQYIQDVHRYWGQGTQVTVSS
notes: also called D1; GOLIATH-D1
- binding result [15]: no binding
- Kd [3]: 6.38 nM

B10: GOLIATH (RNF130) VHH of SEQ ID NO: 7 (VHH)
VHH: QVQLQESGGGLVQAGGSLRLSCAASGTISVIGYMGWYRQAPGKERELVASIASGTSTYYADSVKGRFTISRDNAKNTVYLQMNSLKPEDTAVYYCAATHYIQDAHRYWGQGTQVTVSS
notes: also called GOLIATH nanobody
- binding result [16]: no binding (tested: 4000 (unit not printed))
- binding result [17]: no binding (tested: 4000 (unit not printed))

B11: GRAIL (RNF128) VHH of SEQ ID NO: 2 (VHH)
VHH: QVQLQESGGGLVQAGGSLRLSCAASGNISVQLDMGWYRQAPGKEREFVAAINQGTTTYYADSVKGRFTISRDNAKNTVYLQMNSLKPEDTAVYYCAVYLYDIWNHPYWGQGTQVTVSS
notes: also called E1; GRAIL-E1
- binding result [18]: no binding
- binding result [19]: no binding
- Kd [5]: 7.92 nM

B12: ZNRF3 VHH of SEQ ID NO: 14 (VHH)
VHH: QVQLQESGGGLVQAGGSLRLSCAASGTISYAHIMGWYRQAPGKERELVAGISQGSITNYADSVKGRFTISRDNAKNTVYLQMNSLKPEDTAVYYCAVISYDYIKSVPFRYWGQGTQVTVSS
notes: also called ZNRF3 nanobody
- binding result [20]: binds
- binding result [21]: binds
- Kd [12]: 0.7 nM
